Where a chain is given by its changes, count along the chain named. Each block holds one binder with its values, some of them ahead of it.
Target: BTN3A1 272-513 (Homo sapiens, UniProt O00481)
Assay: ITC

Chain of BTN3A1 272-513 (O00481 272-513): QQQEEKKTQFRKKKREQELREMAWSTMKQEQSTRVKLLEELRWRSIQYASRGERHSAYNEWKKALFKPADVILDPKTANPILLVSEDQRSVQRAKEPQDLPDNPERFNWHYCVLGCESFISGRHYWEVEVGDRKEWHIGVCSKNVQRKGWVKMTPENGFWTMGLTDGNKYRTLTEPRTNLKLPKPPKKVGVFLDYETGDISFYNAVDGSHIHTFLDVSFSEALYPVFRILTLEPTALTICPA

Kd: 710 nM
B1: BTN2A1 271-527 (protein)
chain: KLQKEKKILSGEKEFERETREIALKELEKERVQKEEELQVKEKLQEEGRARRTFLHAVDVVLDPDTAHPDLFLSEDRRSVRRCPFRHLGESVPDNPERFDSQPCVLGRESFASGKHYWEVEVENVIEWTVGVCRDSVERKGEVLLIPQNGFWTLEMHKGQYRAVSSPDRILPLKESLCRVGVFLDYEAGDVSFYNMRDRSHIYTCPRSAFSVPVRPFFRLGCEDSPIFICPALTGANGVTVPEEGLTLHRVGTHQSL

Kd: 1160 nM
B2: BTN2A1 271-527 (protein)
chain: B1 chain with A50W

Kd: 670 nM
B3: BTN2A1 271-527 (protein)
chain: B1 chain with G48L
